Substrate in this data set: CC(=O)Oc1ccc([N+](=O)[O-])cc1
Put plainly: colorimetric esterase assay, Lineweaver-Burk plot. Particulars: 15 mM Tris/SO4 pH 7.4, 22 °C, 0.25-3 mM substrate, apparent Km. The format is biochemical, Sycon raphanus.

This passage reports Km results from paper PMC3821024, “The enzyme carbonic anhydrase as an integral component of biogenic Ca-carbonate formation in sponge spicules^” (FEBS Open Bio, 2013).

As usually defined, the Km is the substrate concentration at which the rate is half of its maximum.

B1: recombinant carbonic anhydrase (CA) from S. raphanus (Sycon raphanus) (protein)
chain: ASWSYNYGAANGPNNWGMLPGFSTCGNGTKQTPIDIVRASATRQTYPTLSFSGATNETDWTIQNNGHSVAALPTADIWLSGGPLGSKVYKVYNIHIHFGNSSFRASEHSFDGGQRTTGEFHVVTYDRTFSNIGEAVASNRGDALSVFGVLFQAQTGQTYDAGITSLINMAANLTYAGDDYVDGLDFSTMVSALDLQQYYSYMGSLTTPGCAEVVSWIVANRLHYVSPAAIDQLMSLKAGMSATPGIDLQGNTRPLQALNGRTVSRSFDLSGS
notes: carbonic anhydrase domain, lacking signal peptide and transmembrane region; expressed in E. coli, Ni-NTA purified
As to B1, the Km is 6.2 ± 1.0 mM.
